# Molecular target: T1, VPA0041-His (Vibrio parahaemolyticus RIMD 2210633) (UniProt Q87K57)
# T1 sequence: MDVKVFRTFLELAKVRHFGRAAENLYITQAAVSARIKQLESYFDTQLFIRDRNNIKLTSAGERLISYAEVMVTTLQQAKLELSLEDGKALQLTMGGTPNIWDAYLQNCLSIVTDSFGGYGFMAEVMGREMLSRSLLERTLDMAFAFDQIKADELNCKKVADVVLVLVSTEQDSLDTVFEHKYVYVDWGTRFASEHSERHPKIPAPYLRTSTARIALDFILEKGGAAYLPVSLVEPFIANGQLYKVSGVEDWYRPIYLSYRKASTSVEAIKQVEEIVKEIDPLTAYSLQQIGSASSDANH
# Experiment: EMSA
# Conditions: EMSA: 20 uL, 10 ng probe (15 ng in Fig 5 legend), 1 ug poly(dI:dC), 4 uL 5x binding buffer (10 mM NaCl, 0.1 mM DTT, 0.1 mM EDTA, 10 mM Tris, pH 7.4), 25 C …
row,Sequence,binding
1,TGCCTGCAGGTCGACGATAGACATACTTTCAAGGCATAGAGTTACGCCAATTACCAATGAGAGAGGGAGTAAGCTCGTG (double strand) [vpa1550 promoter-4],binds
2,TGCCTGCAGGTCGACGATTTAGTCGCCTTGTCTTATAGGGAAACACTAGATGTTTTCGAGAGGAAGGCGGAACACATAAGGTGGAAAATACACTTCCTCTCAAATTTAAATAGTATCGCAAGTCAATGTTTTAAAAGAATATTCAAGTTAGGCACGTATCTTGCGATAAGACATACTTTCAAGGCATAGAGTTACGCCAATTACCAATGAGAGAGGGAGTAAGCTCGTG (double strand) [vpa1550 promoter (promoter-1)],binds
3,CATGCATCTTTCCTTACAGTCGGCTCGAATACGCCAAGATACAAACAAGATACATCGTCGACCTGCAGGCA (double strand) [vpa0264 promoter-3],no binding
4,TGCCTGCAGGTCGACGATTAGAGTTTTCCCCCTAATTTTTTTGCTTTCCGTAAACCGGAAGTTTGGTTTCCACTCTTGTTTGTAAGTCATTGATAAATATAAATAAAATTTATGGCACGTATCTTGTTTGTATCTTGGCGTATTCGAGCCGACTGTAAGGAAAGATGCATG (double strand) [vpa0264 promoter-1],binds
5,TGCCTGCAGGTCGACGATTCCACTCTTGTTTGTAAGTCATTGATAAATATAAATAAAATTTATGGCACGTATCTTGTTTGTATCTTGGCGTATTCGAGCCGACTGTAAGGAAAGATGCATG (double strand) [vpa0264 promoter-2],binds
6,TGCCTGCAGGTCGACGATGTTTGTCCTGTCGAAAGAATTCCTAATAACAGTATCCACTTTGAGGAAATTAGAGTTTTCCCCCTAATTTTTTTGCTTTCCGTAAACCGGAAGTTTGGTTTCCACTCTTGTTTGTAAGTCATTGATAAATATAAATAAAATTTATGGCACGTATCTTGTTTGTATCTTGGCGTATTCGAGCCGACTGTAAGGAAAGATGCATG (double strand) [vpa0264 promoter],binds
7,TGCCTGCAGGTCGACGATGGAACACATAAGGTGGAAAATACACTTCCTCTCAAATTTAAATAGTATCGCAAGTCAATGTTTTAAAAGAATATTCAAGTTAGGCACGTATCTTGCGATAAGACATACTTTCAAGGCATAGAGTTACGCCAATTACCAATGAGAGAGGGAGTAAGCTCGTG (double strand) [vpa1550 promoter-2],binds
8,TGCCTGCAGGTCGACGATCAAGTCAATGTTTTAAAAGAATATTCAAGTTAGGCACGTATCTTGCGATAAGACATACTTTCAAGGCATAGAGTTACGCCAATTACCAATGAGAGAGGGAGTAAGCTCGTG (double strand) [vpa1550 promoter-3],binds
9,CATCTTAGTCTCCTTAGTTTATCACTATTTCTTTCAGGCCTTGGGATATTCCCTAGTCACTAACTAGAGGCGGTCGCTTGCCACTAATGATTAATTTGAAAATTAAAAATTTTCTAAAAAAGATCAAAATTGATGATTTTTAGTGACTTGCATTCCACTAAGTTGGGGTTTGCTACCGTTTTAGCGTTAGTTTCCGATGTGCTTTGATCGGCATCGTCGACCTGCAGGCA (double strand) [vpa1548 promoter (promoter-1)],binds
